From US20220204580A1 (AstraZeneca / MedImmune, published 2022)
Each block holds one binder with its values, some of them ahead of it. Numbered stars: 1 amine (or outer) side, 2 acyl side, 3 side chain; on linkers, the order of the positions; unused ones are H or OH. Bridge positions count the residues as written; N and C are the ends. Square brackets hold non-standard residues; d marks the D form. Side chains are listed from the residue outwards. Ends that are not written are not given here. * marks the point of attachment. C18 diacid = O=C(O)CCCCCCCCCCCCCCCCC(=O)*; γGlu = O=C(O)[C@H](CCC(=O)[*:2])N[*:1]; Aib = CC(C)(N)C(=O)O

Tests used:
[1] = target: T1, human calcitonin receptor (human, UniProt P30988 25-474); assay: cell-based or functional assay
T1 sequence (looked up): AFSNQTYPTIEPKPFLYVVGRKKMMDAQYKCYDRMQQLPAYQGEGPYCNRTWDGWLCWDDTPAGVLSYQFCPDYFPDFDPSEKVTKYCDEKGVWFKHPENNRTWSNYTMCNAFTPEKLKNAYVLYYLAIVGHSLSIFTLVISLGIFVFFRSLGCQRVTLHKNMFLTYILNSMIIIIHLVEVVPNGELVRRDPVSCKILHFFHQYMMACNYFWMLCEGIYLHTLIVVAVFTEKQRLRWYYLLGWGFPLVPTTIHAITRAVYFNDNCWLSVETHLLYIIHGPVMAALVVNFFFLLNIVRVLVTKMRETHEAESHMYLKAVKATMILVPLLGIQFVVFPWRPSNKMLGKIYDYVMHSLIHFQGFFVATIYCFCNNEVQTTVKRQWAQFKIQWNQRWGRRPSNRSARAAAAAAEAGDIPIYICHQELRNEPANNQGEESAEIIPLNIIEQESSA

[2] = target: T2, human amylin receptor (calcitonin receptor co-expressed with receptor activity modifying protein, RAMP3) (human, UniProt P30988 25-474; O60896 24-148); assay: cell-based or functional assay
T2 sequence (looked up) 1: T1 sequence (looked up)
T2 sequence (looked up) 2: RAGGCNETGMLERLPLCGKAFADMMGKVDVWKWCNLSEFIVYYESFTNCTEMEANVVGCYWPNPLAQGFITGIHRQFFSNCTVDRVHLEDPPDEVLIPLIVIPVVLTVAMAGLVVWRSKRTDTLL

- EC50 (cAMP production) [1]: 1.17 nM
- EC50 (cAMP production) [2]: 0.691 nM
- Ratio (EC50 hCTR / EC50 hAMYR3) [2]: 2
B1: Peptide 95 (SEQ ID NO: 95) (peptide)
peptide: K([γGlu-C18 diacid])KCNTATCATQRLANFL[Aib]HSSNNFGPI[Aib]PPTNVGSNTY-NH2
modifications: disulfide 3-8; N-terminus assumed
SMILES: CC[C@H](C)[C@H](NC(=O)[C@@H]1CCCN1C(=O)CNC(=O)[C@H](Cc1ccccc1)NC(=O)[C@H](CC(N)=O)NC(=O)[C@H](CC(N)=O)NC(=O)[C@H](CO)NC(=O)[C@H](CO)NC(=O)[C@H](Cc1c[nH]cn1)NC(=O)C(C)(C)NC(=O)[C@H](CC(C)C)NC(=O)[C@H](Cc1ccccc1)NC(=O)[C@H](CC(N)=O)NC(=O)[C@H](C)NC(=O)[C@H](CC(C)C)NC(=O)[C@H](CCCNC(=N)N)NC(=O)[C@H](CCC(N)=O)NC(=O)[C@@H](NC(=O)[C@H](C)NC(=O)[C@@H]1CSSC[C@H](NC(=O)[C@H](CCCCN)NC(=O)[C@@H](N)CCCCNC(=O)CC[C@H](NC(=O)CCCCCCCCCCCCCCCCC(=O)O)C(=O)O)C(=O)N[C@@H](CC(N)=O)C(=O)N[C@@H]([C@@H](C)O)C(=O)N[C@@H](C)C(=O)N[C@@H]([C@@H](C)O)C(=O)N1)[C@@H](C)O)C(=O)NC(C)(C)C(=O)N1CCC[C@H]1C(=O)N1CCC[C@H]1C(=O)N[C@H](C(=O)N[C@@H](CC(N)=O)C(=O)N[C@H](C(=O)NCC(=O)N[C@@H](CO)C(=O)N[C@@H](CC(N)=O)C(=O)N[C@H](C(=O)N[C@@H](Cc1ccc(O)cc1)C(N)=O)[C@@H](C)O)C(C)C)[C@@H](C)O

- EC50 (cAMP production) [1]: 0.859 nM
- EC50 (cAMP production) [2]: 0.556 nM
- Ratio (EC50 hCTR / EC50 hAMYR3) [2]: 2
B2: Peptide 96 (SEQ ID NO: 96) (peptide)
peptide: K([γGlu-C18 diacid])KCNTATCATQRLANFL[Aib]HSSNNFGPIL[Aib]PTNVGSNTY-NH2
modifications: disulfide 3-8; N-terminus assumed
SMILES: CC[C@H](C)[C@H](NC(=O)[C@@H]1CCCN1C(=O)CNC(=O)[C@H](Cc1ccccc1)NC(=O)[C@H](CC(N)=O)NC(=O)[C@H](CC(N)=O)NC(=O)[C@H](CO)NC(=O)[C@H](CO)NC(=O)[C@H](Cc1c[nH]cn1)NC(=O)C(C)(C)NC(=O)[C@H](CC(C)C)NC(=O)[C@H](Cc1ccccc1)NC(=O)[C@H](CC(N)=O)NC(=O)[C@H](C)NC(=O)[C@H](CC(C)C)NC(=O)[C@H](CCCNC(=N)N)NC(=O)[C@H](CCC(N)=O)NC(=O)[C@@H](NC(=O)[C@H](C)NC(=O)[C@@H]1CSSC[C@H](NC(=O)[C@H](CCCCN)NC(=O)[C@@H](N)CCCCNC(=O)CC[C@H](NC(=O)CCCCCCCCCCCCCCCCC(=O)O)C(=O)O)C(=O)N[C@@H](CC(N)=O)C(=O)N[C@@H]([C@@H](C)O)C(=O)N[C@@H](C)C(=O)N[C@@H]([C@@H](C)O)C(=O)N1)[C@@H](C)O)C(=O)N[C@@H](CC(C)C)C(=O)NC(C)(C)C(=O)N1CCC[C@H]1C(=O)N[C@H](C(=O)N[C@@H](CC(N)=O)C(=O)N[C@H](C(=O)NCC(=O)N[C@@H](CO)C(=O)N[C@@H](CC(N)=O)C(=O)N[C@H](C(=O)N[C@@H](Cc1ccc(O)cc1)C(N)=O)[C@@H](C)O)C(C)C)[C@@H](C)O
